Experimental data taken from the supplement of paper PMC9732359.
± gives the uncertainty stated by the source.

Assay: protein stability index of a GFP-peptide fusion (yeast GPS) (PSI 1-4); higher = more stable; sorted into four equal gates, so the index is relative within each strain
Procedure, shortened: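 Sequencing reads from sorted gates were used to score each peptide. The library consisted of tiled 17-residue yeast protein peptides fused downstream of GFP on a Cherry-expressing plasmid, pooled and carried in yeast. Mid-log cultures in leucine-free medium were split into four equal gates by GFP/Cherry ratio, and each gate's plasmids were PCR-amplified and Illumina-sequenced. The protein stability index adds up, over all gates, the read frequency multiplied by the gate number.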

Sequence	protein stability index (doa10∆)	protein stability index (pdr5∆)	protein stability index (san1∆)	protein stability index (ubr1∆)
SKKQRNNGSKDHGDGIL [RPN9]	3.37 ± 0.13	2.85 ± 0.097	3.27 ± 0.057	2.78 ± 0.053
LTLTDSQLAQVAAFVNN [BRR2]	2.14 ± 0.084	2.18 ± 0.099	2.37 ± 0.15	2.69 ± 0.061
MSDHSLDKLNCAINSKS [RRP6]	2.49 ± 0.057	2.8 ± 0.047	2.59 ± 0.051	2.83 ± 0.036
NLETLVTTKDDLSGADI [RPT2]	3.15 ± 0.067	3.34 ± 0.085	3.27 ± 0.037	3.34 ± 0.057
LESIQKTKEAVAALKAV [RPL4A]		3.37 ± 0.2	2.82 ± 0.27	2.88 ± 0.17
IFRGSLIGCIPYSKNAV [YDL088C/ASM4]	2.18 ± 0.062	2.51 ± 0.09	2.14 ± 0.13	2.19 ± 0.068
TVNHSEKFPNDVKLLNP [RPP1]	2.79 ± 0.05	2.87 ± 0.034	3.08 ± 0.036	3 ± 0.036
NTATNALRPSDIFGANA [YOR098C/NUP1]	3.08 ± 0.069	3.24 ± 0.074	3.27 ± 0.061	3.2 ± 0.074
LFSEKTIRYLMQKQHEM [SNF6]	2.63 ± 0.044	2.55 ± 0.045	2.44 ± 0.069	2.66 ± 0.034
PRLSHLSLTAVPSFLRP [GRR1]	2.09 ± 0.042	1.93 ± 0.062	1.79 ± 0.074	2.18 ± 0.045
NLENHFKKSKIDHINEE [SCL1]	2.74 ± 0.072	3.16 ± 0.075	2.64 ± 0.065	2.58 ± 0.047
EGWPKFQDTLYKKIPLL [QCR10]	2.8 ± 0.087	1.63 ± 0.079	1.85 ± 0.098	1.43 ± 0.069
GSVSEETELFEPGVLNT [ECM29]	3.28 ± 0.16	3 ± 0.087	3.07 ± 0.096	2.67 ± 0.083
GSGQPDNDTVVTNDDKS [SRB8]	3.08 ± 0.23	3.29 ± 0.17	2.52 ± 0.15	
ERHGYIRGIVKQIVHDS [RPL2A]	1.6 ± 0.051	1.84 ± 0.072	1.92 ± 0.062	1.79 ± 0.05
GSADIGASVISLTKDKS [SIR4]	3.01 ± 0.086	3.12 ± 0.067	2.92 ± 0.084	3.21 ± 0.052
DSNSEILNFLNQEDLFE [YML103C/NUP188]	2.79 ± 0.12	2.86 ± 0.089	2.76 ± 0.049	3.14 ± 0.086
TFGKKADVTSNIDSSAQ [YOR098C/NUP1]	2.09 ± 0.058	2.23 ± 0.045	1.91 ± 0.11	2.57 ± 0.038
QKVSQLESADKQLEKRD [POP4]	3.26 ± 0.069	3.35 ± 0.083	3.27 ± 0.07	3.35 ± 0.077
KTLIGLQGIVIWDSQKF [POP4]	1.7 ± 0.061	1.91 ± 0.051	2.17 ± 0.071	2.38 ± 0.044
SMINNSNQAVGQTWNFP [SRB8]	2.8 ± 0.17	3.01 ± 0.16	3.15 ± 0.13	2.74 ± 0.12
EISRLKTSLSIKVENLN [SMC2]	2.76 ± 0.077	2.55 ± 0.13	2.39 ± 0.17	2.56 ± 0.064
QLAPSSVDPQSSSTQNV [DIS3]	2.99 ± 0.084	3.21 ± 0.079	2.8 ± 0.081	2.63 ± 0.098
VSITPGKIEKIAQSKKK [SRP21]	1.62 ± 0.081	1.8 ± 0.086	1.36 ± 0.13	1.49 ± 0.06
QKLLKQLDSDANKLSKS [ISW2]	3.03 ± 0.048	2.89 ± 0.053	2.92 ± 0.047	2.98 ± 0.04

Sequence	protein stability index (doa10∆)	protein stability index (pdr5∆)	protein stability index (san1∆)	protein stability index (ubr1∆)
LCRNPLTSGLLYSYLIK [YJL039C/NUP192]	2.07 ± 0.064	1.84 ± 0.06	1.67 ± 0.088	1.53 ± 0.036
FGYDIPLLDIVLKADRS [YML103C/NUP188]	2.14 ± 0.061	2.81 ± 0.073	2.82 ± 0.068	2.66 ± 0.057
MFRYKTNLYKLKEERAI [PUP3]	2.87 ± 0.22	2.67 ± 0.17	1.78 ± 0.17	2.1 ± 0.093
YGNPTSKESWRYDWYQP [RTT102]	2.05 ± 0.1	2.27 ± 0.082	2 ± 0.071	2.03 ± 0.035
SECIVSIKSKVVDHHVE [RRP42]	3.04 ± 0.066	3.08 ± 0.08	2.71 ± 0.14	3.04 ± 0.067
HSLSQAIKWDGSSGGVI [PRE3]	3.69 ± 0.28	3.27 ± 0.21	2.67 ± 0.21	
LNDRQEEISRLQRDLIQ [YIL149C/MLP2]	2.72 ± 0.11	3.25 ± 0.25	3.07 ± 0.26	3.05 ± 0.12
ADNTKDKEKEENNDDAL [MED4]	2.86 ± 0.14	3.04 ± 0.11	2.98 ± 0.078	3.16 ± 0.082
ELVVFLPALCKKMGVPY [RPL8A]	2.92 ± 0.098	2.83 ± 0.11	2.78 ± 0.14	3 ± 0.061
NTQPSASGFGFGGSQPN [YGR119C/NUP57]	3.18 ± 0.18	2.72 ± 0.15	2.84 ± 0.12	2.77 ± 0.13
VLNGQKIVVVRAEALNI [RPL16B]	2.47 ± 0.14	3.15 ± 0.14	3.16 ± 0.11	3.11 ± 0.11
RARLKGKEGRIRGNLMG [RPO21]	3.37 ± 0.097	3.19 ± 0.12	3.32 ± 0.088	2.96 ± 0.081
MALKFVSIKFTNAAFPF [ECM29]	2.09 ± 0.058	1.98 ± 0.058	1.76 ± 0.078	1.82 ± 0.071
GGPWFTDGELDIEFINS [RPC34]	3.14 ± 0.15	3.42 ± 0.12	2.55 ± 0.21	3.17 ± 0.081
RMRIFASNEVIAKSRYW [RPL20A]	2 ± 0.049	2.57 ± 0.065	2.54 ± 0.068	2.53 ± 0.035
VLIDLLNWFRTTNMNVN [RGR1]	2.9 ± 0.11	1.66 ± 0.068	3.19 ± 0.096	1.92 ± 0.093
SRTLILSILNEIKKVTQ [SIN4]	3.05 ± 0.12	2.56 ± 0.15	2.27 ± 0.11	2.82 ± 0.084
ICGYTRKEGPTIYYVDS [PRE2]	3.36 ± 0.095	3.24 ± 0.081	3.42 ± 0.042	2.84 ± 0.069
NRRLFKKCIDFFEMLIS [RRI2]	2.2 ± 0.037	2.05 ± 0.045	2.12 ± 0.058	2.02 ± 0.03
YLAENPDPNFENSIGYN [PRP8]	3.28 ± 0.065	3.08 ± 0.061	3.12 ± 0.088	3.19 ± 0.054
TAAEKKERLTKEAAAVA [RPL8A]	3.25 ± 0.12	2.79 ± 0.16	3.13 ± 0.096	2.89 ± 0.15
PSDMVIPDHLAELIPEL [SNF12]	3.09 ± 0.08	3 ± 0.069	2.88 ± 0.11	2.79 ± 0.042
AKAVWENIIIVGGTTSI [ARP9]	1.89 ± 0.044	2.12 ± 0.057	1.67 ± 0.081	2.48 ± 0.054
YILANHYLSRVLSDQVG [YJL039C/NUP192]	2.87 ± 0.064	2.98 ± 0.078	2.72 ± 0.07	2.54 ± 0.049
KRTRLESLKNLNESRSQ [SMC3]	2.53 ± 0.092	2.4 ± 0.075	2.61 ± 0.071	2.82 ± 0.13
